assay: yeast display, Sf9 membrane polyspecificity reagent, FACS + sequencing; frameworks hold sequencing errors
Summary of the method: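 Nanobodies from a synthetic yeast display library (Saccharomyces cerevisiae BJ5465), induced 36–48 hours with galactose, were stained 1 hour at 4 °C with 10% biotinylated, detergent-solubilized Sf9 membrane reagent, enriched on streptavidin microbeads, then FACS-sorted. Anti-HA (expression) and streptavidin (reagent binding) fluorescence set low and high (top ~1%) gates. Polyreactivity labels come from the gate of origin. Genes were colony-PCR amplified, MiSeq 2 × 250 sequenced and filtered by CDR length.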

Sequence	polyreactivity (PSR sort gate)
QVQLVESGGGLVQAGGSLRLSCAASGRTFTNNAMGWYRQAPGKERELVAAIRWSGGYTYYADSVKGRFTISRDNAKNTVYLQMNSQKPEDTAVYYCAKGYGYVEAVIVQYDYWGQGSQVTVSS	low polyreactivity
QVQLVESGGGLVQAGGSLRLSCAASGRTFTPYAKGWYRQAPGKERELVATISSGTSTNYADSVKGRFTISLDNAKYTVYLQMNSLKPEDTAVYYCAADGYTYKFDYWGQGSQVTVSS	low polyreactivity
QVQLVESGGGLVQAGGSLRLSCAASGRTFTPYTRGWYRQAPGKEREFVPAIRTGGNTYYADSVKGRFTISRDNAKNTVYLQMNSLKPEDTAVYYCAARDRIGYRLYYWGQGTQVTVSS	high polyreactivity
QVQLVESGGGLVQAGGSLRLSCAASGRTFTQNAMGWYRQAPGKERELVAAISSGGRTYYADSVKGRFTISRDNAKNTVYLQMNSLKPEDTAVYYCNAGGGRRMYWGLGTQVTVSS	high polyreactivity
QVQLVESGGGLVQAGGSLRLSCAASGRTFTQYAMGWYRQAPGKERELVARISYSGGTTYYADSVKGRFTISRDNAKNTVYLQMNSLKPEDNAVYYCAKARVVAGYDYWGQGTQVTVSS	high polyreactivity
QVQLVESGGGLVQAGGSLRLSCAASGRTFTRNVMGWYRQAPGKERELVARISYSGGSTSYADSVKGRFTISRDNAKNTVYLQMNSLKPEDTAVYYCAKYSGKYVSGRYRYYSWGQGTQVTVSS	high polyreactivity
QVQLVESGGGLVQAGGSLRLSCAASGRTFTRYAMGWYRQAPGKERELVAAISWSGGSTYYADSVKGRFTISRDNAKNTVYLQMNSLKPEDTAVYYCNAYYYYPEFNYWGLGTQVTVSS	high polyreactivity
QVQLVESGGGLVQAGGSLRLSCAASGRTFTRYAMGWYRQAPGKERELVAAITSSGRTYYADSVKGRFTISRDNAKNTVYLQMNSLKPEDTAVYYCAKYRANALNYANRGAGDYWGQGTQVTVSS	high polyreactivity
QVQLVESGGGLVQAGGSLRLSCAASGRTFTRYAMGWYRQAPGKERELVASISSRGTRTYYADSVKGRFTISRDNAKNTVYLQMNSLKPDDTAVYYCNVGFYPYYFLTYQGGDYWGQGTQVTVSS	high polyreactivity
QVQLVESGGGLVQAGGSLRLSCAASGRTFTSNAMGWYRPAPGKERELVAAITQSGGSTYYADSVKGRFTISRDNAKNTVYLQMNSLKPEDTAVYYCNAETTGRTEYNYWGQGTQVTVSS	low polyreactivity
QVQLVESGGGLVQAGGSLRLSCAASGRTFTSNAMGWYRQAPGKERELVAAITRGGSTYYADSVKGRFTISRDNAKNTVYLQMNSLKPEDTAVYYCNAGIYFRRKRYDYWGQGTQVTVSS	high polyreactivity
QVQLVESGGGLVQAGGSLRLSCAASGRTFTVNAMGWYRQAPGKERELVARISYGGARTYYADSVKGRFTISRDNAKNTVYLQMNSLKPEDTAVYYSAAPGPRKYEYDYWGQGTQVTVSS	high polyreactivity
QVQLVESGGGLVQAGGSLRLSCAASGRTFTVYAMGWYRQAPGKERELVAAIIYSGGRTYYADSVKGRFTISRDNAKNTVYLQMNSLKPEDTAVYYCAAYVYQSCPRFSRYGGYDYWGQGTQVTVSS	low polyreactivity
QVQLVESGGGLVQAGGSLRLSCAASGRTFTVYAMGWYRQAPGKERELVAAIRRRGGSTYYADSVKGRFTISRDNAKNTVYLQMNSLKPEDTAVYYCAADNWYKKQKRPSAYDYWGQGTQVTVSS	high polyreactivity
QVQLVESGGGLVQAGGSLRLSCAASGRTFTVYAMGWYRQAPGKERELVAAIRRTGSTYYADSVKGRFTISRDNAKNTVYLQMNSLKPEDTAVYYCNAEGSSVLTGYWGYPPYWDTYDYWGQGTQVTVSS	low polyreactivity
QVQLVESGGGLVQAGGSLRLSCAASGRTFTYYAIGWYRQAPGKERELVADINRSGGDTYYADSVKGRFTISRDNAKNTVYLQMNSLKPEDTAVYYSAADDWGAQHRYDYWGQGTQVTVSS	low polyreactivity
QVQLVESGGGLVQAGGSLRLSCAASGRTFTYYAMGWSRQAPGKERELVASITSGGSTYADSVKGRFTISRDNAKNTVYLQMNSLKPEDTAVYYCAARAWGYRYKYYWGQGTQVTVSS	high polyreactivity
QVQLVESGGGLVQAGGSLRLSCAASGRTFVFNAMGWYRPAPGKERELVAAITKNGGSTYYADSVKGRFTISRDNAKNTVYLQMNSLKPEDTAVYYCAAQWWRLYWEYYYWGQGTQVTVSS	low polyreactivity
QVQLVESGGGLVQAGGSLRLSCAASGRTFVFNAMGWYRQAPGKERELVAAISARGGRTYYADSVKGRFTISRDNAKNTVYLQMNSLKPEDTAVYYCATVPYPNRKVGVDYWGQGTQVTVSS	high polyreactivity
QVQLVESGGGLVQAGGSLRLSCAASGRTFVFNAMGWYRQAPGKERELVAAITKNGGSTYYADSVKGRFTISRDNAKNTVYLQMNSLKPEDTAVYYCAVRRGYPFYYWGQGTQVTVSS	low polyreactivity
QVQLVESGGGLVQAGGSLRLSCAASGRTFVFYAMGWYIQAPGKERELVASISDGDRTNYADSVKGRFTISRDNAKNTVYLQMNSLKPEDTAVYYCAADREFWWEVVYTYEYYYWGQGTQVTVSS	low polyreactivity
QVQLVESGGGLVQAGGSLRLSCAASGRTFVFYAMGWYRQAPGKERELVAAITSSGRTKYADSVKGRFTISRDNAKNTVYLQMNSLKPEDTAVYYCAVLRWPGLDYYWGQGTQVTVSS	high polyreactivity

Sequence	polyreactivity (PSR sort gate)
QVQLVESGGGLVQAGGSLRLSCAASGRTFVGNAMGWYRQAPGKEREFVAAITSRTGSTYYADSVKGRFTISRDNAKYTVYLQMNSLKPEDTAVYYCATPYYQNVYSRKAYNYWGQGTQVTVSS	high polyreactivity
QVQLVESGGGLVQAGGSLRLSCAASGRTFVGNAMGWYRQAPGKERELVADITWSGDITYYADSVKGRFTISRDNAKNTVYLQKNSLKPEDTAVYYCAADYHRRRTDYDYWGQGTQVTVSS	low polyreactivity
QVQLVESGGGLVQAGGSLRLSCAASGRTFVGYAMGWYRQAPGKERELVAAISGSGVRTYYADSVKGRFTISRDNAKNTVYLQMNSLKPEDTAVYYCAVRQGWYNFRYDYWGQGTQVTVSS	high polyreactivity
QVQLVESGGGLVQAGGSLRLSCAASGRTFVHNAMGWYRQAPGKERELVAVITSGARTTYADSVKGRFTISRDNAKNTVYLQMNSLKPEDTAVYYCAAGTFSVIFSYKYRHYYYWGQGTQVTVSS	low polyreactivity
QVQLVESGGGLVQAGGSLRLSCAASGRTFVINSMGWYRQAPGKERELVAAITWGGGSTYYADSVKGRFTISRDNAKNTVYLQMNSLKPEDTAVYYCATSYSVQYGGSGYYWGQGTQVTVSS	low polyreactivity
QVQLVESGGGLVQAGGSLRLSCAASGRTFVKYAMGWYRQAPGKERELVAAISSRGSSTYYADSVKGRFTISRDNAKNTVYLQMNSLKPEETAVYYCNAVYYYNPGYDYWGQGTQVTVSS	high polyreactivity
QVQLVESGGGLVQAGGSLRLSCAASGRTFVNNAMGWYRQAPGKERELVAAISQSGSRTYYADSVKRRFTISRDNAKNSVYLQMNSLNTEDTAVYDCAARGARSSTSDDWGQGTQVTVSS	high polyreactivity
QVQLVESGGGLVQAGGSLRLSCAASGRTFVNYTMGWYRQAPGKERELVAAIRYRDGSTYYADSVKGRFTISRDNAKNTVYLQMNSLKPEDTAVYYCDTRITQVGDYIYDYWGQGTQGTVSS	low polyreactivity
QVQLVESGGGLVQAGGSLRLSCAASGRTFVPYAMGWYRQAPGKEREFVAAISSRVGSTYYADSVKGRFTISRDNAKNTVYLQMNSLKPEDTAVYYCNAPFKPAGFYSAWKYDYWGQGTQVTVSS	low polyreactivity
QVQLVESGGGLVQAGGSLRLSCAASGRTFVPYAMGWYRQAPGKERELVAAISSSGGSTYYADSVKGRFTISRDNAKNTVYLQMNSLKPDDTAVYYCAAKSRKGGEYWGQGTQVTVSS	high polyreactivity
QVQLVESGGGLVQAGGSLRLSCAASGRTFVPYAMGWYRQAPGKERELVAAISWSSVSTYYADSVKGRFTISRDNAKNTVYLQMNSLKPEDTAVYYCAAEYYTRVAEYYYWGQGTQVTVSS	high polyreactivity
QVQLVESGGGLVQAGGSLRLSCAASGRTFVQYVMGWYRQAPGKERELVARISSGGSTFYADSVKGRFTISRDNAKNTVYLQMNSLKPEDTAVYYCAAQWTRYRRRPMDYWGQGTQVTVSS	high polyreactivity
QVQLVESGGGLVQAGGSLRLSCAASGRTFVRYAMGWYRQAPGKERELVAAISRTGGTTYYADSVKGRFTISRDNAKNTVYLQMNSLKPEDTAVYYCNADPFYKYGYWGQGTQVTVSS	high polyreactivity
QVQLVESGGGLVQAGGSLRLSCAASGRTFVRYAMGWYRQAPGKERELVAAISWSGGSTYYADSVKGRFTISRDNAKNTVYLQMNSLKPEDTAVYYCAADDETPSSHEEDYWGQGTQVTVSS	high polyreactivity
QVQLVESGGGLVQAGGSLRLSCAASGRTFVRYAMGWYRQAPGKERELVAAITRRGGSTYYADSVKGRFTISRDNAKNTVYLQMNSLKPEDTAVYYCNKAVGVTGFDYWGQGTQVTVSS	high polyreactivity
QVQLVESGGGLVQAGGSLRLSCAASGRTFVRYAMGWYSQAPGKERELVAAISGIATRTYYADSVKGRFTISRDNAKNTVYLQMNSLKPEDTAVYYCNALYAKYDYWGQGTQVTVSS	high polyreactivity
QVQLVESGGGLVQAGGSLRLSCAASGRTFVSNAMGWYRQAPGKERELVAAITQSGGSTYADSVKGRFTISRDNAKNTVYLQLNSLKPEDTAVYYCNSEHAFVGTYYERHDYWGQGTQVTVSS	low polyreactivity
QVQLVESGGGLVQAGGSLRLSCAASGRTFVSNAMGWYRQAPGKERELVAGINWTDDSTYYADSVKGRFTISRDNAKNTVYLQINSLKPEDTAVYYCAADSLEFAWPRFDYWGQGTQVTVSS	low polyreactivity
QVQLVESGGGLVQAGGSLRLSCAASGRTFVSNDMGWYRQAPGKERELVATISSGASTYYADSVKGRFTISRDNAKNTVYLQMNSLKPEDTAVYYCAAEVLVFGGGYDYWGQGTQVTVSS	low polyreactivity
QVQLVESGGGLVQAGGSLRLSCAASGRTFVSYAMGWYRQAPGKERELVAAISGSGGSTYYADSVKGRFTISPDNAKKTGYLQMNSLKPEDTAVYYCHKGRPRKVNSEGFGYWGQGTQVTVSS	high polyreactivity
QVQLVESGGGLVQAGGSLRLSCAASGRTFVTNAMGWYRQAPGKERELVAAISGTGGSTYYADSVKGRFTISRDNAKNTVYLQMNSLKPEDTAVYYCNKDYHVRYYYWGQGTLVTVSS	low polyreactivity
